This passage reports activity results from US20210071247.

The subject of data set [1] is AMV reverse transcriptase (Avian myeloblastosis virus). Particulars: LNA at GATA and GAAC of 3' 12-mer GATAgcttGAAC of SEQ 2 (mC LNA), PS linkages in the 12-mer; iSp18 spacer and 3' amino in DCP1; read-through efficiency, 42 C; lost above 52.5 C.
Data set [2] deals with PrimeScript reverse transcriptase (UniProt P03355). Particulars: LNA at GATA and GAAC of 3' 12-mer GATAgcttGAAC of SEQ 2 (mC LNA), PS linkages in the 12-mer; iSp18 spacer and 3' amino in DCP1; read-through efficiency, 42 C.
The next data set concerns the target Volcano2G DNA polymerase (UniProt P19821). Particulars: LNA at GATA and GAAC of 3' 12-mer GATAgcttGAAC of SEQ 2 (mC LNA), PS linkages in the 12-mer; iSp18 spacer and 3' amino in DCP1; first strand read-through efficiency vs DTT1, ddPCR, 42 C.

Volcano2G DNA polymerase, sequence (P19821 whole entry): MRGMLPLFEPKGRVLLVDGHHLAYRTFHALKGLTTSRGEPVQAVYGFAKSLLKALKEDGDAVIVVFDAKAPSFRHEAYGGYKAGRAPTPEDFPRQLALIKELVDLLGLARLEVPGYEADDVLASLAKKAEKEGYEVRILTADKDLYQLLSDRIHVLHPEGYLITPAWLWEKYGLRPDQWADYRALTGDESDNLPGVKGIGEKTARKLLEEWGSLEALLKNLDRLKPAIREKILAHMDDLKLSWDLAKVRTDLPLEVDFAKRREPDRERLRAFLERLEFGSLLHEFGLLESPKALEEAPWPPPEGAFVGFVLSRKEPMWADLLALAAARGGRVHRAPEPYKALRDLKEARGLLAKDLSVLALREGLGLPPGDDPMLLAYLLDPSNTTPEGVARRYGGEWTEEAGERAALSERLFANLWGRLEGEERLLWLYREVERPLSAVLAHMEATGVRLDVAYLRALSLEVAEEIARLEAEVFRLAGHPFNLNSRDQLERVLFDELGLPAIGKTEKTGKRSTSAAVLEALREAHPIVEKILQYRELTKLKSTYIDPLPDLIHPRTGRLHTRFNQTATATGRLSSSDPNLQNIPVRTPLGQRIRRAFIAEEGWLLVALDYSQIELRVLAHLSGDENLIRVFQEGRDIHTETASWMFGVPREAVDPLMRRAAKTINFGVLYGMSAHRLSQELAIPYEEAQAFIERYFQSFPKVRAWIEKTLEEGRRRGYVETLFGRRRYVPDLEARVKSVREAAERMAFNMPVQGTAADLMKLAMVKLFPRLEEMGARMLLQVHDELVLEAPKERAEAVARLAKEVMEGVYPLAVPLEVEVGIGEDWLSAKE

On to “GCGTAACTAGACCATAAGCCGATAGCTTGAACCGGACCAGCAAGCTTAGAGATCACGGTATCCAGATTCGCTCATAGTACACAACTGCCTCCGGTTCAA / GCAGTTGTGTACTATGAGCGA [LTT1 template with DCP1_primer1]”, for which the activity in data set [1] came to 0.1%; in data set [2], 0.1%; in the data set with Volcano2G DNA polymerase, 10%.
